Among the data in article PMC5912465 are IC50 of neutralization of CCL8-induced THP-1 monocyte cell migration (EC80 dose of CCL8) values, retold here.

This test concerns the target CCL8 (human chemokine panel) (human) (UniProt P80075).

Sequence of CCL8 (human chemokine panel) (human) (P80075 24-99): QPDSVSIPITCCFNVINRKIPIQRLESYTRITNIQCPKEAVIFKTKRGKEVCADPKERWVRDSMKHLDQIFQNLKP

“P672(1_44)-EVA1(29_94) hybrid evasin (from UniProt L7MC74;P0C8E7)” had an IC50 of neutralization of CCL8-induced THP-1 monocyte cell migration (EC80 dose of CCL8) of 48 nM.
